Experimental data taken from article PMC6370554.

Biological target: biotinylated histone H3K27me3 (21-44) peptide (UniProt P68431)
Assay: ELISA

“Pcαα fusion protein (tandem human CBX8 PCDs, mCherry, VP64) (from UniProt Q9HC52 1-62; Q9HC52 1-62) (designed binder)” showed an HRP ELISA signal:background ratio (H3K27me3 over unmodified H3) of 6.
